Experimental data as given in patent publication US6051224, “Compositions and methods for targeting cells and modulating pulmonary surfactant secretion” (Thomas Jefferson University, dated 2000).

Biological target: purified recombinant human surfactant protein A (human, UniProt Q8IWL2, 125I radioiodination using chloramine T)
Experiment: ligand blot of lysogen proteins (SDS-PAGE, PVDF, 125I-SP-A)

B1: recombinant porcine SP-A recognition protein (SPAR) encoded by the 1.8-kb porcine lung cDNA, expressed from lambda gt11 in E. coli Y1089 (receptor)
chain: MDMCYGMMGSLFRSGSRQTLFASQVMRYADLYAASFINLLYYPFSYLFRAAHVLMPHESTVEHTHVDINEMESPLATRNRTSVDFKDTDYKRHQLTRSISEIKPPNLFPLAPQEITHCHDEDDDEEEEEEEEECGGKPKLSALIKQVLAGLTGAKAVSLWVLVGGGGLHQRYILESFLKTLKYSNHREILVLVFCICTLCSWFRIVRESVSEERKGQAGLNCMQLAPLWFVTLFHHQYIIVYPETRRVVEGPRVKQRQWEEVIQKCYGTNWALTTKTHLFQCIT
  binding result: binds
